Biological target: T1, recombinant human TFPI (tissue factor pathway inhibitor) (human, UniProt P10646 29-304)
T1 construct: Biotin-conjugated in the yeast FACS; also called hTFPI; TFPI antigen
Test: ELISA of phage-library Fab supernatants on TFPI-coated plate
Procedure: Single colonies were collected from the finally amplified library, and then cultured in 1.5 mL of SB/carbenicillin at 37° C. at 220 rpm until an OD600 of about 0.8-1.0 was reached, followed by incubation with 1 mM IPTG at 30° C. at 200 rpm for 12 hours. Next, the cells were centrifuged at 5500 rpm for 5 minutes, and the supernatant was added to a TFPI antigen-coated ELISA plate, incubated at room temperature for 2 hours, and then washed four times with PBST (1×PBS, 0.05% tween 20). Next, a 1:5000 dilution of an HRP/anti-hFab-HRP conjugate (CAT. No. A0293, Sigma) with 1% BSA/1×PBS was added to the cells, after which the cells were incubated at room temperature for 1 hour and washed four times with PBST (1×PBS, 0.05% tween 20). Then, the cells treated with a TMB solution for 5-10 minutes, and a TMB stop solution was added to the cells. Next, the absorbance at a wavelength of 450 nm was measured using the TECAN sunrise, and clones having high O. D values were selected as individual clones.

B1: clone A52 (antibody, V domains shown)
VH: EVQLVESGGGLVKPGGSLRLSCAASGFTFSSYAMNWVRQAPGKGLEWVSTITTGGSHTYYADSVDGRFTISRDNAKNSLYLQMNSLRAEDTAVYYCARQDGNFLMDYWGQGTLVTVSS
VL: DVVMTQTPLSLPVTLGQPASISCKSSQSLLDIDGKTYLNWLQQRPGQSPKRLIYLVSKLDSGVPDRFTGSGSGTDFTLKISRVEAEDVGVYYCWQGTHFPFTFGQGTKVEIKR
notes: Fab from phage library at selection; human IgG4/kappa IgG as purified
B1: binds.

— patent publication US20180030151A1 (MOGAM INSTITUTE FOR BIOMEDICAL RESEARCH, published 2018)
